One substance from US20160152676A1 can be followed below.

The experiment concerns the target gp41 of HIV-1 IIIB virus (HIV-1 IIIB) (UniProt P04578). The experiment can be described thus: cell-based or functional assay.

For the substance “C34-ELMO (from UniProt Q92556 553-675) (designed binder)”, the inhibition of HIV-1 infection in cellulo (GFP+ CEM-GFP cells, flow cytometry); concentration at which some inhibition is seen amounted to 250 nM.
